Measured values published in publication PMC9040152.

Legend:
[1] = target: E5-tagged Fcγ receptor IIIa, V158 variant (human); experiment: SPR
[2] = target: E5-tagged FcγRIIIa V158, produced in CHO cells (human); experiment: SPR
Sequence of E5-tagged FcγRIIIa V158, produced in CHO cells (human) (P08637 17-208): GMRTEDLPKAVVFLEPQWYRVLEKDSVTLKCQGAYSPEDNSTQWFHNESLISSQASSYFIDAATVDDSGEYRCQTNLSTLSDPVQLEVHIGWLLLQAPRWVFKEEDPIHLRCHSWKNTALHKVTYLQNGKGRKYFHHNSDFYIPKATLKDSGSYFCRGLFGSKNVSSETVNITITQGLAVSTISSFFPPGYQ

Sequence of E5-tagged Fcγ receptor IIIa, V158 variant (human) (P08637 17-208, change not shown): as the sequence (P08637 17-208) above

## Trastuzumab co-expressed with β1,4-galactosyltransferase 1 (TZM GT) (antibody)
[1]
  fold increase in affinity upon digalactosylation, relative to TZM: 2 fold

## Trastuzumab co-expressed with β4GT1 and RMD, in vitro α2,6-sialylated (antibody)
[2]
  Kd: 32 nM
